Results as given in patent US20240158497A1 (published 2024).

Molecular target: T1, human gp130 extracellular domain (E23-E619) with C-terminal mouse IgG2a Fc (human)
T1 construct: dimeric; also called hGP130-mFc; human GP130-mFc
T1 chain: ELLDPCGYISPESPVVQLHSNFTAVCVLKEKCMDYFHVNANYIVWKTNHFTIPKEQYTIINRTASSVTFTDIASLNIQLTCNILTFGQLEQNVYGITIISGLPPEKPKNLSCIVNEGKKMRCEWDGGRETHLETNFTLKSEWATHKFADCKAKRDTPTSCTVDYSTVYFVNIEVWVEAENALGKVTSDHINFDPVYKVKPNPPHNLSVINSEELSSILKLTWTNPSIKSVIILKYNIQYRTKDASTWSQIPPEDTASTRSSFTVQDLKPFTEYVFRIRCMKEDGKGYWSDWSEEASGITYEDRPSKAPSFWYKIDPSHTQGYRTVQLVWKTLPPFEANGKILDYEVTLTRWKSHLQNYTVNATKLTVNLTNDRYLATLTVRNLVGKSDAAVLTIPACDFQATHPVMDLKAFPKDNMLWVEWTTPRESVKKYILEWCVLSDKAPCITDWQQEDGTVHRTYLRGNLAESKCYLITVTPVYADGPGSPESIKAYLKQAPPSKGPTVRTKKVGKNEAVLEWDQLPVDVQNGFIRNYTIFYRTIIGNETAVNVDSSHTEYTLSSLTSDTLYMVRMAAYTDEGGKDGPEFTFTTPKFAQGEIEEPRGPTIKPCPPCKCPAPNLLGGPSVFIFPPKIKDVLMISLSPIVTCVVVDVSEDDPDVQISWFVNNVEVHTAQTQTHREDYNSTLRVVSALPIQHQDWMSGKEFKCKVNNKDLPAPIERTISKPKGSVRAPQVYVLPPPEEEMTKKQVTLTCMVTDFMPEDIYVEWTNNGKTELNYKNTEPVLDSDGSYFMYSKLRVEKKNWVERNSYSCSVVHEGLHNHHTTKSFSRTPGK
Assay: blocking ELISA, 2.5 nM hGP130-mFc on plate-bound CNTFR/CNTF complex; * below lower limit of quantitation 1.25E-09M
Protocol: The experiment was carried out using the following procedure. Human CNTFRα was coated at a concentration of […] in HBSS on a 96-well microtiter plate overnight at 4° C. […] Human CNTF at a concentration of 1 μg/ml in HBSS was added to the plate bound CNTFRα for 1 hour at room temperature. In separate dilution plates, a constant amount of 2.5 nM of human GP130-mFc protein was titrated with antibodies ranging from 3.4 pM to 200 nM in serial dilution and with no antibody present. These solutions were incubated for 1 hour at room temperature (RT) and subsequently transferred to the microtiter plates with CNTFRα/CNTF complex without washing. The plates were incubated for 2 hours at RT, washed with PBST buffer, and plate-bound hGP130-mFc was detected with an anti-mFc polyclonal antibody conjugated with horseradish peroxidase (HRP) (Jackson ImmunoResearch Inc). Samples were developed with a TMB solution (BD Biosciences, substrate A and B mixed at 1:1 ratio as per manufacturer's instructions) to produce a colorimetric reaction and then neutralized with 1M sulfuric acid before measuring absorbance at 450 nm on a Victor X5 plate reader.
Data analysis was performed using a sigmoidal dose-response model within Prism™ software (GraphPad). […]

IC50: 0.644 nM
B1: MAb16666 (antibody, V domains shown)
VH: EVQLVESGGGLVQSGGSLRLSCAASGFTFSRYEMNWVRQAPGKGLEWVAYISNTGTTRDYSDSVKGRFTISRDNAKNSLYLQMSSLRVEDTAVYYCVREKFSGTSDWFDPWGQGTLVTVSS
VL: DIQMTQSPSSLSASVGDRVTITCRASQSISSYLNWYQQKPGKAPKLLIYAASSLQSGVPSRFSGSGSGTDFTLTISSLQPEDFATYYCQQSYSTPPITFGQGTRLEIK
notes: hIgG4 isotype control used
